Here are results for one substance from patent US20010010922.

Series [1] concerns GST-BCL6ΔZFAla333,343 fusion protein.
In series [2] the test system is GST-BCL6 fusion protein (full-length BCL-6).
For series [3], the system named is GST-BCL6ΔZFAla333 fusion protein.

Recombinant ERK2 (New England Biolabs), sequence (P28482 2-360): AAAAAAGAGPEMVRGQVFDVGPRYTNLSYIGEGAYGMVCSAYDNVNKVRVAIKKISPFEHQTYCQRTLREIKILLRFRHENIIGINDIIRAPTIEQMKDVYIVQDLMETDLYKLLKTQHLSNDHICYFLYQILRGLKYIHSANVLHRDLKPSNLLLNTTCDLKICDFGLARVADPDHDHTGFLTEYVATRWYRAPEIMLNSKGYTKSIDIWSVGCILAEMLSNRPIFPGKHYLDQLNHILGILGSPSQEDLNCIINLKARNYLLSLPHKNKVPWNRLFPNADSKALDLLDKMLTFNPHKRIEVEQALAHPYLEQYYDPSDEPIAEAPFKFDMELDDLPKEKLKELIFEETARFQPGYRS

Take Recombinant ERK2 (New England Biolabs): the “phosphorylation in ERK2 kinase assay in vitro ([gamma-32P]-ATP)” value in series [1] was “phosphorylated at much lower levels than wild type BCL-6, with BCL-6Ala333,343 displaying the lowest levels”; in series [2], “purified recombinant MAPK (ERK-2) can phosphorylate GST-BCL-6 fusion proteins in vitro”; in series [3] it was “phosphorylated at much lower levels than wild type BCL-6”.
